Protein stability index data for 94 variants are collected here from the supplement of paper PMC10567573.

B1: KLHL20 (parent)
chain: YQDMIYAVGGRDDTTELSSAERYN
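Note: lentivirally expressed fusions sorted by FACS into six bins by GFP to DsRed ratio, PSI derived from sequencing read proportions per bin multiplied by bin number.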

Variants of B1 are the subject of this data set. Put plainly: protein stability index of a GFP-peptide fusion (GPS, HEK-293T) (PSI 1-6); higher = more stable. The settings on record: c terminus: a fixed tail appended.
For the variant YQDMIFAVGGRDDTTELSSAERYN [Y6F], the protein stability index came out at 2.14.
As for YQDMIYLVGGRDDTTELSSAERYN [A7L], the figure is 2.01; as for YQDMIYGVGGRDDTTELSSAERYN [A7G], 3.01.
YQDMIYWVGGRDDTTELSSAERYN [A7W]: the protein stability index came out at 2.92.
As to YQDMIYNVGGRDDTTELSSAERYN [A7N], the protein stability index came out at 2.92.
As for YQDMIYEVGGRDDTTELSSAERYN [A7E], the figure is 3.56; as for YQDMIYKVGGRDDTTELSSAERYN [A7K], 2.12.
YQDMIYYVGGRDDTTELSSAERYN [A7Y]: the protein stability index was 2.27.
For the variant YQDMIYHVGGRDDTTELSSAERYN [A7H], the protein stability index turned out to be 2.42.
The same measure for YQDMIYPVGGRDDTTELSSAERYN [A7P]: 3.07; for YQDMIYIVGGRDDTTELSSAERYN [A7I]: 1.8.
YQDMIYCVGGRDDTTELSSAERYN [A7C]: the protein stability index amounted to 2.17.
As for YQDMIYMVGGRDDTTELSSAERYN [A7M], the figure is 1.96; as for YQDMIYRVGGRDDTTELSSAERYN [A7R], 1.76.
As for YQDMIYQVGGRDDTTELSSAERYN [A7Q], the figure is 2.29; as for YQDMIYSVGGRDDTTELSSAERYN [A7S], 2.55; as for YQDMIYDVGGRDDTTELSSAERYN [A7D], 3.34.
YQDMIYVVGGRDDTTELSSAERYN [A7V]: the protein stability index is 2.16.
The same measure for YQDMIYTVGGRDDTTELSSAERYN [A7T]: 2.27.
YQDMIYFVGGRDDTTELSSAERYN [A7F]: the protein stability index was determined as 1.69.
The same measure for YQDMIYAPGGRDDTTELSSAERYN [V8P]: 2.79; for YQDMIYAGGGRDDTTELSSAERYN [V8G]: 2.81.
With YQDMIYAIGGRDDTTELSSAERYN [V8I], the protein stability index was found to be 1.97.
Turning to YQDMIYACGGRDDTTELSSAERYN [V8C], the protein stability index was determined as 2.37.
The same measure for YQDMIYAAGGRDDTTELSSAERYN [V8A]: 2.77; for YQDMIYAKGGRDDTTELSSAERYN [V8K]: 2.44.
Consider YQDMIYAFGGRDDTTELSSAERYN [V8F], for which the protein stability index came out at 1.87.
As for YQDMIYANGGRDDTTELSSAERYN [V8N], the protein stability index was determined as 2.81.
For YQDMIYAYGGRDDTTELSSAERYN [V8Y], the protein stability index came out at 2.09.
The same measure for YQDMIYAEGGRDDTTELSSAERYN [V8E]: 3.38; for YQDMIYATGGRDDTTELSSAERYN [V8T]: 2.41; for YQDMIYASGGRDDTTELSSAERYN [V8S]: 2.65.
As for YQDMIYAHGGRDDTTELSSAERYN [V8H], the protein stability index was found to be 2.84.
For YQDMIYALGGRDDTTELSSAERYN [V8L], the protein stability index was found to be 1.86.
As to YQDMIYAWGGRDDTTELSSAERYN [V8W], the protein stability index is 1.94.
Take YQDMIYAMGGRDDTTELSSAERYN [V8M]: the protein stability index is 1.75.
As for YQDMIYAQGGRDDTTELSSAERYN [V8Q], the figure is 2.6; as for YQDMIYADGGRDDTTELSSAERYN [V8D], 3.45.
Regarding YQDMIYARGGRDDTTELSSAERYN [V8R], the protein stability index was 2.52.
As for YQDMIYAVGGLDDTTELSSAERYN [R11L], the figure is 1.99; as for YQDMIYAVGGIDDTTELSSAERYN [R11I], 2.44; as for YQDMIYAVGGADDTTELSSAERYN [R11A], 2.54.
As for YQDMIYAVGGEDDTTELSSAERYN [R11E], the figure is 3.
For YQDMIYAVGGDDDTTELSSAERYN [R11D], the protein stability index stood at 3.01.
As for YQDMIYAVGGHDDTTELSSAERYN [R11H], the figure is 2.1.
Take YQDMIYAVGGGDDTTELSSAERYN [R11G]: the protein stability index amounted to 2.33.
As for YQDMIYAVGGCDDTTELSSAERYN [R11C], the figure is 2.69; as for YQDMIYAVGGFDDTTELSSAERYN [R11F], 2.08; as for YQDMIYAVGGKDDTTELSSAERYN [R11K], 2.55.
As to YQDPIYAVGGRDDTTELSSAERYN [M4P], the protein stability index turned out to be 2.6.
The same measure for YQDHIYAVGGRDDTTELSSAERYN [M4H]: 2.55; for YQDAIYAVGGRDDTTELSSAERYN [M4A]: 2.51; for YQDEIYAVGGRDDTTELSSAERYN [M4E]: 3.68.
For YQDQIYAVGGRDDTTELSSAERYN [M4Q], the protein stability index was 2.66.
YQDRIYAVGGRDDTTELSSAERYN [M4R]: the protein stability index is 2.75.
The same measure for YQDLIYAVGGRDDTTELSSAERYN [M4L]: 2.31; for YQDDIYAVGGRDDTTELSSAERYN [M4D]: 3.48.
The same measure for YQDFIYAVGGRDDTTELSSAERYN [M4F]: 1.84; for YQDWIYAVGGRDDTTELSSAERYN [M4W]: 2.85.
As for YQDVIYAVGGRDDTTELSSAERYN [M4V], the figure is 3.02.
For YQDIIYAVGGRDDTTELSSAERYN [M4I], the protein stability index amounted to 2.4.
As for YQDTIYAVGGRDDTTELSSAERYN [M4T], the figure is 3.15.
As for YQDGIYAVGGRDDTTELSSAERYN [M4G], the figure is 2.48.
As for YQDNIYAVGGRDDTTELSSAERYN [M4N], the figure is 3.12.
On to YQDCIYAVGGRDDTTELSSAERYN [M4C], for which the protein stability index came out at 2.68.
The same measure for YQDYIYAVGGRDDTTELSSAERYN [M4Y]: 2.77; for YQDSIYAVGGRDDTTELSSAERYN [M4S]: 3.27; for YQDKIYAVGGRDDTTELSSAERYN [M4K]: 2.65.
For QQDMIYAVGGRDDTTELSSAERYN [Y1Q], the protein stability index turned out to be 4.75.
For the variant TQDMIYAVGGRDDTTELSSAERYN [Y1T], the protein stability index turned out to be 4.58.
PQDMIYAVGGRDDTTELSSAERYN [Y1P]: the protein stability index is 4.57.
The same measure for RQDMIYAVGGRDDTTELSSAERYN [Y1R]: 4.89; for WQDMIYAVGGRDDTTELSSAERYN [Y1W]: 2.85.
As for VQDMIYAVGGRDDTTELSSAERYN [Y1V], the figure is 4.5; as for SQDMIYAVGGRDDTTELSSAERYN [Y1S], 4.89; as for YQDMKYAVGGRDDTTELSSAERYN [I5K], 3.39.
Regarding YQDMHYAVGGRDDTTELSSAERYN [I5H], the protein stability index was 2.65.
Turning to YQDMTYAVGGRDDTTELSSAERYN [I5T], the protein stability index was determined as 3.17.
Regarding YQDMDYAVGGRDDTTELSSAERYN [I5D], the protein stability index is 3.99.
With YQDMCYAVGGRDDTTELSSAERYN [I5C], the protein stability index is 2.52.
Regarding YQDMFYAVGGRDDTTELSSAERYN [I5F], the protein stability index was 1.79.
The same measure for YQDMYYAVGGRDDTTELSSAERYN [I5Y]: 2.21.
The same measure for YQDMPYAVGGRDDTTELSSAERYN [I5P]: 2.72; for YQDMQYAVGGRDDTTELSSAERYN [I5Q]: 4.11; for YQDMMYAVGGRDDTTELSSAERYN [I5M]: 2.77.
Turning to YQDMLYAVGGRDDTTELSSAERYN [I5L], the protein stability index is 2.61.
As for YQDMSYAVGGRDDTTELSSAERYN [I5S], the figure is 3.53; as for YQDMNYAVGGRDDTTELSSAERYN [I5N], 3.09; as for YQDMEYAVGGRDDTTELSSAERYN [I5E], 3.98.
As for YQDMWYAVGGRDDTTELSSAERYN [I5W], the figure is 2.48; as for YQDMRYAVGGRDDTTELSSAERYN [I5R], 2.71.
The same measure for YQDMVYAVGGRDDTTELSSAERYN [I5V]: 2.53.
In the case of YQDMGYAVGGRDDTTELSSAERYN [I5G], the protein stability index was determined as 3.14.
As for YQDMAYAVGGRDDTTELSSAERYN [I5A], the figure is 2.28.
